Experimental findings from PMC8705320 are described below.

For one assay, the target named is papain (UniProt P00784).
Assay [1] addresses human cathepsin L (human) (UniProt P07711). Description: enzyme inhibition kinetics (Dixon plot); cathepsin L 0.4 nM; Cystatin-Hv 8, 16 and 24 nM; Z-FR-AMC substrate at 1 Km and 2 Km; 50 mM sodium phosphate, 200 mM NaCl, 5 mM EDTA, pH 5.5, 6 mM DTT preactivation; 37 °C; fluorescence read each minute for 15 min.

Usually Ki stands for the dissociation constant of the complex between target and ligand, obtained from inhibition or displacement. A low value points to a stronger hold on the target.

Chain of UniProt P00784 (P00784 134-345): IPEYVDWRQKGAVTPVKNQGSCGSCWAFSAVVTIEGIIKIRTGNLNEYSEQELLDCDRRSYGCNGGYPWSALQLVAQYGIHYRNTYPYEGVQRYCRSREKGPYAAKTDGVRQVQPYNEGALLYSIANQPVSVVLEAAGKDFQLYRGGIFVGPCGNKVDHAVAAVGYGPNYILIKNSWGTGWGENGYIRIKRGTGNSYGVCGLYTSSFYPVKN

In turn, “Cystatin-Hv (recombinant cystatin of the leech Haementeria vizottoi) (natural protein)” gave an IC50 of inhibition of papain activity (papain 21.4 nmol/L or 50 ng, 5 µM Z-FR-MCA substrate; 1, 5, 10 and 15 µg of pool 2 from ion-exchange chromatography) in the assay with papain of 120 nM. In assay [1], the inhibitory constant (Ki) amounted to 7.9 nM.
